Experimental data: article PMC9529352

Target: N protein WT (SARS-CoV-2, UniProt P0DTC9 1-419)
Assay: mass photometry
Conditions: protein: recombinant; tags: 6xHis-SUMO tag cleaved by Ulp1; chain copies: 12; hairpin

B1: SL8 RNA (structured_RNA)
RNA: GAUGGCACUUGUGGCUUAGUAGAAGUUGAAAAAGGCGUUUUGCCUCAACUUGAACAGCCCUAUGUGUUCAUC
- binding result: binds
